Source: the supplement of paper PMC12042874
± gives the uncertainty stated by the source.

Assay: amyloid nucleation score (Sup35N fusion, yeast selection) (log enrichment); library NNK1; higher = more nucleation; inactive = no reads after selection
Procedure, shortened: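 The nucleation score is the DiMSum log enrichment of output over input reads, centred on the mode score of non-aggregating sequences. Only sequences with 100 or more input reads were scored, using Illumina sequencing of input and output plasmid inserts. Psi-negative yeast expressing Sup35N fused to peptides of 20 random codons were induced 24 hours with 100 μM copper sulfate and grown 7 days at 30°C on medium lacking adenine and uracil.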

Substance	amyloid nucleation score
YKTEHNRSIDLLGISSSSFL	-0.322 ± 1
YLAGILHTCLTLDSDVRFYT	0.722 ± 0.54
YLAQIELRLV	0.053 ± 0.79
YLASREDDINMDASLLSTHA	1.41 ± 0.66
YLDFNHM	inactive
YLELLPAYRLFTGLVVLLMI	0.736 ± 0.13
YLFMMAIRGAKTLVS	inactive
YLFSIVFCNV	2.67 ± 0.29
YLIKCTTIAGRTGYSVTMRD	-0.341 ± 1
YLLLGYSHYQMNVLFNTRQS	inactive
YLLYDQQVSLRFVWITLSVW	0.683 ± 0.41
YLLYEVSVLNYRPL	-0.285 ± 0.32
YLNILMSWI	-0.921 ± 0.66
YLQLSRAVQRVLTRRWSSI	0.31 ± 0.52
YLRLFFVRCGHPDSETSYRS	0.418 ± 0.33
YLTSANTSFTFESWWCL	2.93 ± 0.22
YLVITLFPEIIIDYLSYLCP	4.52 ± 0.079
YLVTYVLSIRNCGIYIWIRR	0.413 ± 0.49
YMGELFTE	2.45 ± 0.15
YMLLTLGLTTLVCNSHRLVL	0.026 ± 0.55
YMQGAFFQQTPSNLWQEGHY	-0.74 ± 0.84
YMVLS	0.9 ± 0.85
YNAASKGEINPNAGNVILFV	3.13 ± 0.1

Substance	amyloid nucleation score
YNCMEYSDARHKSSTVRLHY	-0.253 ± 0.62
YNCWSSLNFYNPIFLRTLLG	3.46 ± 0.21
YNFCILCSSPIIVFAAPVQR	8.034 ± 0.051
YNFERDYLSVYHFAWLIP	0.372 ± 0.54
YNFRTVNFHIGTPSICFGHD	inactive
YNGGGSYNWVWMGNSPVKTR	0.969 ± 0.61
YNLSGFDNGFSISLSCSDVA	0.886 ± 0.74
YNSRGDCRTLVKRGMGNFCA	0.191 ± 0.32
YNSTAIHNYENRRDLHQLYL	0.139 ± 0.33
YNVCGELQDNIRCYISLTVL	inactive
YPQMLVSVLRFMYY	0.009 ± 0.26
YPSCAGVWFKHNRLFFV	0.096 ± 0.79
YQSLVMFMEPDSRVLRVCRA	0.104 ± 0.69
YQWFMYVF	4.61 ± 0.11
YRALLYFNGIMW	inactive
YRCTLASNRLRFLWITSNVR	-0.085 ± 0.58
YREGHHPGWTMVKMMRTQVP	0.26 ± 0.6
YRGKRDKVVGSMMCMWRT	0.518 ± 0.52
YRGLGFVERESRDRG	-0.418 ± 0.8
YRHTVIVY	1.13 ± 0.21
YRITERIFFDQKASHVWLIT	-0.165 ± 0.41
YRKFHPGKRL	0.193 ± 0.58
YRLGSKISNSVKPRFDRLVE	inactive

Substance	amyloid nucleation score
YRNGCTFGWWRWRR	1.08 ± 0.28
YRNLGGLLGIELINIMLLLW	-0.429 ± 0.93
YRRVKM	-0.089 ± 0.53
YRSYTRNWTLTIPGCTLRSL	-1.93 ± 2.7
YRWLLNRKTSSMSVFCNSLF	inactive
YRYHVSCTYAVSLGAAKSNA	-0.078 ± 0.72
YSCFSECYTKMSHTLSKNNL	2.11 ± 0.32
YSDSMTIKRDSLWVIGTLEL	1.94 ± 0.21
YSEFRDSLRSGIPLVPFVIQ	0.066 ± 0.88
YSFSRQVSMPSSYSFALF	-0.742 ± 0.65
YSGPGAGFGGLLCIGNAQNL	-0.108 ± 0.62
YSGVPLARQCGADGLKGTGE	0.724 ± 1.2
YSHDSSSTIFRNETPLSTPM	inactive
YSIDTGS	inactive
YSIPNDLNPSCKSHLMPRGH	1.23 ± 0.41
YSMVI	inactive
YSNIRFSMNIYRTLRDRLGA	5.12 ± 0.095
YSQCSRVNFWISAYCVNYIN	7.03 ± 0.071
YSRTNMFQ	-0.649 ± 0.5
YSSCFRSGIF	-0.68 ± 0.6
YSSWVKLASLVDRDVPQYDW	inactive
YSVFALRINLFAYTIPNSVL	-0.34 ± 0.24
YSWLVWGTSPV	0.445 ± 0.38
